Reference: patent US20210101998A1 (Pfizer, published 2021)
Where two headings read alike, the source gives them in different places.

Legend:
[1] = molecular target: T1, humTFPI K1K2 (human); experiment: SPR, antibody ligand, TFPI analyte
T1 construct: Biotinylated on the AviTag for ELISA; also called Human TFPIα K1K2; humTFPI K1K2-aviHis10
Method: (§1) The flow cells were activated by injecting a 1:1 mixture of 400 mM 1-Ethyl-3-(3-dimethylaminopropyl) carbodiimide hydrochloride (EDC) and N-hydroxysuccinimide (NHS) for 7 minutes at a flow rate of 10 μl/minute. Anti-human IgG antibody was diluted to 25 μg/ml in 10 mM Sodium Acetate pH 5.0 and injected over all flow cells for 7 minutes at 10 ul/minute. All flow cells were blocked with 1 M Ethanolamine-HCL (ETH) for 7 minutes at 10 μl/minute. Final immobilization level of the capture antibody was approximately 10,000 resonance units (RU). The running buffer for immobilization and kinetics was 10 mM HEPES pH 7.4, 150 mM NaCl, 3 mM EDTA, 0.05% (v/v) Tween-20 (HBS-EP+). […] Flow cell 1 was used as a reference surface. […] At the end of each cycle, the entire anti-IgG surface was regenerated by a 60 second pulse of 3 M MgCl2. Kinetic assays were conducted at 25° C. at a collection rate of 10 Hz on a BIAcore T200 instrument (GE Healthcare). Rate constants and affinities were determined by fitting the data to a 1:1 model in BIAcore T200 Evaluation software version 1.0 (GE).

[2] = molecular target: T1, humTFPI K1K2; experiment: SPR, antibody ligand, TFPI analyte; remark: listed apart in the source
[3] = molecular target: T2, murTFPI K1K2 (mouse); experiment: SPR, antibody ligand, TFPI analyte
T2 construct: also called Mouse TFPI K1K2; mouse TFPI
T2 chain: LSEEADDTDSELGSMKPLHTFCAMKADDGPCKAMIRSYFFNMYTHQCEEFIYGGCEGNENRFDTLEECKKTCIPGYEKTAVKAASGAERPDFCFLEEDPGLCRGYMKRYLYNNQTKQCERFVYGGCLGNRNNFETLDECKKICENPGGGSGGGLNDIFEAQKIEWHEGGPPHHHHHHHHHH

[4] = molecular target: T1, humTFPI K1K2; experiment: cell-based or functional assay
[5] = molecular target: T1, humTFPI K1K2; experiment: cell-based or functional assay; remark: listed apart in the source
[6] = molecular target: T3, rabTFPI K1K2 (rabbit, limits assumed); experiment: SPR, summary table
T3 construct: also called Rabbit TFPI K1K2; rabbit TFPI
T3 chain: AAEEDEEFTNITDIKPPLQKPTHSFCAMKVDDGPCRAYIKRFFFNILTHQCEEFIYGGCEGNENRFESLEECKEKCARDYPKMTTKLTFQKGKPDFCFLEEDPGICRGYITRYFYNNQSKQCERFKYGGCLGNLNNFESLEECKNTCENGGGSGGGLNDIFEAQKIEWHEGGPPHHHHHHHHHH
Method: as §1

[7] = molecular target: T4, ratTFPI K1K2 (rat); experiment: SPR, summary table
T4 chain: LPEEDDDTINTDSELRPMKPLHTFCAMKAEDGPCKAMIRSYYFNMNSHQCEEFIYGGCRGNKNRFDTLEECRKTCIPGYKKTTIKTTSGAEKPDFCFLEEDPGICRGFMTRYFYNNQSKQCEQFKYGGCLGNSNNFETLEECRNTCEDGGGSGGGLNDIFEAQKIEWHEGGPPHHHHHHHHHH
Method: as §1

[8] = molecular target: humTFPI K1K2K3 (human); experiment: cell-based or functional assay
[9] = molecular target: T3, rabTFPI K1K2; experiment: SPR, antibody ligand, TFPI analyte
Method: as §1

[10] = molecular target: T4, ratTFPI K1K2; experiment: SPR, antibody ligand, TFPI analyte;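 note: surface plasmon resonance on a BIAcore T200 at 25 °C, test antibody captured on immobilized anti-human IgG, TFPI K1K2 flowed as analyte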
Method: as §1

[11] = molecular target: T1, humTFPI K1K2; experiment: SPR, antibody ligand, TFPI analyte; remark: listed apart in the source
Method: as §1

[12] = molecular target: T3, rabTFPI K1K2; experiment: SPR, antibody ligand, TFPI analyte
Method: as §1

[13] = molecular target: T1, humTFPI K1K2; experiment: ELISA, biotinylated TFPI on streptavidin plate
[14] = molecular target: T3, rabTFPI K1K2; experiment: ELISA, biotinylated TFPI on streptavidin plate

B1: TFPI-23 (antibody, human IgG1, lambda)
light: QSVLTQPPSVSGAPGQRVTISCTGSSSNIGAGYDVHWYQQLPGTAPKLLIYGNSNRPSGVPDRFSGSKSGTSASLAITGLQAEDEADYYCQSYDSSLSGSGVFGGGTKLTVLGQPKAAPSVTLFPPSSEELQANKATLVCLISDFYPGAVTVAWKADSSPVKAGVETTTPSKQSNNKYAASSYLSLTPEQWKSHRSYSCQVTHEGSTVEKTVAPTECS
heavy: not shown
notes: Human IgG1-3M from phage display; also called mAb-TFPI-23; clone 23
B1 was tested, and the Kd [1] was 9.89 nM, the Kd [2] was 9.89 nM and the Kd [3] was 1.46 nM. For the same binder, the “FXa EC50” value [4] was 46 nM and the “FXa-FVIIa EC50” value [4] was 32.2 nM.

B2: TFPI-106 (antibody, human IgG1, lambda)
light: QSVLTQPPSVSGAPGQRVTISCTGSSSNIGAGYDVHWYQQLPGTAPKLLIYGNSNRPSGVPDRFSGSKSGTSASLAITGLQAEDEADYYCQSYDSSLSGSGVFGGGTKLTVLGQPKAAPSVTLFPPSSEELQANKATLVCLISDFYPGAVTVAWKADSSPVKAGVETTTPSKQSNNKYAASSYLSLTPEQWKSHRSYSCQVTHEGSTVEKTVAPTECS
heavy: not shown
For B2, the “FVIIa/TF/Xa EC50” value [5] was 4.3 nM, the “Xa Inhibition Assay EC50” value [5] was 18.1 nM and the Kd [6] was 4.25 nM. The Kd [7] was 1.57 nM, the “EC50, neutralization of FVIIa/TF/FXa inhibition” value [8] was 8.47 nM and the Kd [9] was 4.25 nM. For the same binder, the Kd [10] was 1.57 nM.

B3: mu-hu 4D8 chimera (antibody, human IgG1, kappa)
light: DIVMTQSHKFMSTSVGDRVSITCKASQDVHTAVAWYQQKPGQSPRLLIYWASTRHTGVPDRFTGCGSGTDYTLTISSVQAEDLALYYCQQHYTTPYTFGGGTKLEMKRTVAAPSVFIFPPSDEQLKSGTASVVCLLNNFYPREAKVQWKVDNALQSGNSQESVTEQDSKDSTYSLSSTLTLSKADYEKHKVYACEVTHQGLSSPVTKSFNRGEC
heavy: EVLLQQSGPELVKPGASVKIPCKASGYTFTDYNLDWVKQSHGKSLEWIGDINPINGATLYNQKFKGKATLTVDQSSSTAYMELRSLTSEDTAVYYCSIYYGDYDAMDYWGQGASVTVSSASTKGPSVFPLAPSSKSTSGGTAALGCLVKDYFPEPVTVSWNSGALTSGVHTFPAVLQSSGLYSLSSVVTVPSSSLGTQTYICNVNHKPSNTKVDKKVEPKSCDKTHTCPPCPAPEAAGAPSVFLFPPKPKDTLMISRTPEVTCVVVDVSHEDPEVKFNWYVDGVEVHNAKTKPREEQYNSTYRVVSVLTVLHQDWLNGKEYKCKVSNKALPAPIEKTISKAKGQPREPQVYTLPPSREEMTKNQVSLTCLVKGFYPSDIAVEWESNGQPENNYKTTPPVLDSDGSFFLYSKLTVDKSRWQQGNVFSCSVMHEALHNHYTQKSLSLSPG
notes: Mouse variable regions on human IgG1 3M and human kappa; also called hu-mu 4D8 chimera; mouse-human chimeric antibody 4D8
In the case of B3, the Kd [11] is reported as 1.19 nM, the koff [11] is reported as 0.00114 s⁻¹ and the kon [11] is reported as 958000 M⁻¹ s⁻¹. For the same binder, the Kd [12] was 0.63 nM, the koff [12] was 0.00126 s⁻¹ and the kon [12] was 2.01e+06 M⁻¹ s⁻¹. It also gave an EC50 [13] of 0.0577 nM and an EC50 [14] of 0.068 nM.
